# Results taken from article PMC9942874 (Immunity, 2023).
# Numbering of substitutions follows the chain as printed.
# B1: 15C5 (IgG1) (antibody, V domains shown)
# VH: DVQLQESGPGLVNPSQSLSLTCSVTGYSITSDYYWNWIRQFPGNKLEWMGYITYDGTNNYNPFFKNRISITRDTSQNQFFLKLNSVTTEDTATYYCARDGRYWYFDVWGAGTTVTVSS
# VL: QIVLTQSPTLMSAFPGEKVTMTCSASSSVSYMYWYQQKPGSSPKPWIYLTSNLASGVPARFSGSGSGTSYSLTISSMEAEDAATYYCQQWNNSPPTFGAGTKLELK
# notes: also called humanized analog of the 15C5 mouse mAb
# B2: RUPA-33 (antibody, V domains shown)
# VH: EVQLVESGGGLVQPGRSLRLSCAASGFTFDDYAVHWVRQVPGKGLEWVSGISWNSATLAYADSVTGRFTISRDNARNSLYLQMNSLRIEDTALYYCARALPERTYGHRAFDYWGRGTQVTVSS
# VL: QSALTQPRSVSGSPGQSVTISCTGTSSDVGYFTFVSWYQQHPGEVPKLIIYDVTKRPSGVPDRFSGSKSGNTASLTISGLQSDDEADYYCCSYAGTYHIRFGGGTKLTVL
# notes: also called RUPA-33 (IgG1)
# B3: RUPA-126 (antibody, V domains shown)
# VH: QVQLVQSGAEVKKPGASVTVSCKASGYTFTDYYLHWVRQAPGHGLEWMGWINPNSGITEYAQKFQGRVTVTRDTSISTIYMDLSRLRSDDTAIYYCVRRERGSPYTLFDYWGQGTLVIVSS
# VL: QSVLTQPPSASGTPGQRVTISCSGGDSNIGTNYGYWYQQFPGTAPKLLIYWNNRRPSGVPDRFSGSKSGTSVFLAISGLRSEDEADYYCAAWDDSLSAPVFGGGTKLTVI
# notes: also called RUPA-126 (IgG1)
# B4: RUPA-133 (antibody, V domains shown)
# VH: QVQLVQSGAEVKKPGASVNVSCMPSGYTFSDYFLHWVRQAPGQGLEWMGWINPNSGLTKYAQKFQGRVTMTSDTSISTVYLDLSRLRSDDTAIYFCVRRERGSPYTLFDYWGQGTLVTVSS
# VL: B3 VL with D26A, G34V, F40L, F73S, A98G
# notes: also called RUPA-133 (IgG1)
# B5: RUPA-39 (antibody, V domains shown)
# VH: DVQLVESGGGLVKPGGSLRLSCAASGFTFSSYTMNWVRQAPGKGLEWVSSISTNIRYIYYADSVKGRFTISRDNAKNSLFLQMDSLRAEDTAVYYCATIAGPLSLKGDFYFDSWGQGTLVTVSS
# VL: EIVMTQSPATLSVSPGERATLSCRASQSVSSSLAWYQQKPGQAPRLLIHGASTRATGIPTRFSGSGSGTEFTLTISSLQSEDFAVYYCQQYANWPPWTFGQGTKVESK
# notes: also called RUPA-39 (IgG1)
# B6: RUPA-55 (antibody, V domains shown)
# VH: B5 VH with S30N, Y110F, S124P
# VL: B5 VL
# notes: also called RUPA-55 (IgG1)
# B7: RUPA-115 (antibody, V domains shown)
# VH: EVQLVESGGGLVQPGRSLRLFCAASGFNFDDYAMHWVRQAPGKGLEWVSGISWNSGTLAYADFVMGRFTISRDTAKNSLYLQMNSLRAEDTAFYYCAKDLKKYISSSLDYWGQGTLVTVFS
# VL: QSALTQPRSVSGSPGQSVTISCTGTSSDVGAYNFVSWFQHHPGKAPKLMIYDVTKRPSGVPDRFSASKSGNTASLTISGLQAEDEAEYYCCSYAGTYHVVFGGGTKLTVL
# notes: also called RUPA-115 (IgG1)
# B8: RUPA-62 (antibody, V domains shown)
# VH: EVQLVESGGGLVQPGRSLRLSCAASGFTFDDYAMHWVRQAPGKGLEWVSGISWNSGSIGYADSVNGRFTISRDNAKKSLYLQMNSLRPEDTALYYCAKDTHEYSSSPGDYWGQGTLVTVSS
# VL: B7 VL with A31G, N33T, F38S, H40Q, T54S, A66G, E87D
# notes: also called RUPA-62 (IgG1)
# B9: RUPA-96 (antibody, V domains shown)
# VH: B7 VH with F21S, A24V, N28T, D31N, M83L, A88T, F93L, L100I, K102M
# VL: B7 VL with I20V, S26N, M49I, V53I
# notes: also called RUPA-96 (IgG1)
# B10: RUPA-38 (antibody, V domains shown)
# VH: EVQLVESGGGLVQPGRSLRLSCAVSGFNFEDYAMHWVRQTPGKGLEWVSGISWNSGTLAYGDFVQGRFIISRDNAKNFLYLQMNSLRPEDTALYYCANDRMRWIQVPHYWGQGTLVTVSS
# VL: B7 VL with Q1L, S26N, S27D, A31E, F34Y, F38Y, H40Q, E87N, V99M
# notes: also called RUPA-38 (IgG1)
# B11: RUPA-73 (antibody, V domains shown)
# VH: EPQLVESGGGLVQPGRSLRLSCAGSGFTFGDYAMHWVRQAPGKGLEWVSGISWNSGTLAYAVFVEGRFTISRDNAKNSLYLQMNSLRPEDTAFYYCAKDVKNYVSGGCSDWGQGSLVTVSS
# VL: B7 VL with A31G, N33E, F38Y, H40Q, H41Y, M49I, D62A, R63H, E87D, V100L
# notes: also called RUPA-73 (IgG1)
# B12: RUPA-32 (antibody, V domains shown)
# VH: EVQLVESGGGLVKPGGSLRLSCAASGFAFSTYAMSWVRQAPGKGLEWVSSISESSSYTYYTDSVKGRFTISRDNAKKSLFLHMNSLRAEDTAVYYCARSDGLSMIAAPFDYWGQGARVTVSS
# VL: EIVLTQSPATLSLSPGERATLSCRTSQSLSISLVWYQQKPGQAPRLLISDASNRAPGIPARFSASGSGTDFTLTISSLEPEDFAVYYCQQRSNWPPITFGQGTRLEMK
# notes: also called RUPA-32 (IgG1)
# B13: RUPA-103 (antibody, V domains shown)
# VH: EVQLVESGGGLVKPGGSLRLSCAASGFTFSSYSMNWVRQAPGKGLEWVSSISSGSSYKYYSDSVKGRFTISRDNAKNSLYLQMNTLRAEDTAVYYCARAPEPGLLWFGEWGDYWGQGTLVTVSS
# VL: EIVLTQSPVTLSLSPGERATLSCRASQSISSSLAWYQQKPGQAPRLLIYDASNRATGIPARFSGSGSGTDFTLTISSLEPEDFAVYYCQQRSIWPPITFGQGTRLEIQ
# notes: also called RUPA-103 (IgG1)
# B14: RUPA-137 (antibody, V domains shown)
# VH: QITLKESGPALVKPTQTLTLTCTFSGFSLTSSGVGVVWVRQPPEKALEWLALIYWDDDRRYSPSLETRLNISKDTSKNQVVLTMTNMDPLDTATYFCAHSRASGWYGYWGQGTLVTVSS
# VL: QSVLTQPPSASGTPGQRVTISCSGSRSNLGTNFVYWYQQLPGTAPKLLIYKNYQRPSGVPDRFSGSKSGTSASLSISGLRSEDEADYYCAAWDDNLNGFYVFGTGTKLTVV
# notes: also called RUPA-137 (IgG1)
# B15: RUPA-136 (antibody, V domains shown)
# VH: EVQLVESGGGLVRPGGSLRLSCAASGFNFSAYGMNWVRQAPGRGLEWISYISHNTSIIHYADSVKGRFTISRDNGANSLYLQLNTLRDGDTAVYYCVRDCATLIGGRLPICQYFFDYWGQGALVTVSS
# VL: SYELTQPSSVSVSLGQTASITCSGDMLTGKYVRWFQQKPGQAPILVIYKDRKRPSGIPDRFSGSSSGTTVTLIINGARIEDEADYYCYSAAARKRVFGGGTKLTVL
# notes: also called RUPA-136 (IgG1)
# B16: RUPA-135 (antibody, V domains shown)
# VH: EVQLVDSGGGLVQPGGSLKLTCATSGFFFSGSAMHWVRQASGKGLEWVGRIRSKGNNYATAYAASVKGRFTISRDDSKNTAYLQMDSLKTEDTAVYYCSSRNSKVPDYWGQGTLVTVSS
# VL: QSVLTQPPSASGTPGQRVTIFCSGSSSNIGSNFVYWYQQLPGAAPKLLIYRNHQRPSGVPDRLSGSKSGTSASLAISGLRSEDEADYYCAAWDDSLNVQVFGGGTKVTVL
# notes: also called RUPA-135 (IgG1)
# Target: T1, Pfs230 C1 (Plasmodium falciparum 3D7 (clone of …, UniProt P68874))
# T1 sequence (P68874 443-731): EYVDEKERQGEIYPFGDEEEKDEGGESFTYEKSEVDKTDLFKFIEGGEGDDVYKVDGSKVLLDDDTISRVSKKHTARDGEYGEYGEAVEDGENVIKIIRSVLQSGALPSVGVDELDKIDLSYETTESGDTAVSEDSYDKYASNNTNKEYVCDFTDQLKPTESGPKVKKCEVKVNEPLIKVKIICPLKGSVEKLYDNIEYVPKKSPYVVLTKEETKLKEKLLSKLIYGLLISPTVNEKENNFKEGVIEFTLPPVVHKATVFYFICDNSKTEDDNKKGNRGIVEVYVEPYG
# Assay: SPR
# Details: both partners purified
row,Binder,binding result
1,B1,binds

# Target: native Pfs230 (gametocyte extract) (Plasmodium falciparum NF54 (3D7 is its …, UniProt P68874))
# Sequence (P68874 21-3135): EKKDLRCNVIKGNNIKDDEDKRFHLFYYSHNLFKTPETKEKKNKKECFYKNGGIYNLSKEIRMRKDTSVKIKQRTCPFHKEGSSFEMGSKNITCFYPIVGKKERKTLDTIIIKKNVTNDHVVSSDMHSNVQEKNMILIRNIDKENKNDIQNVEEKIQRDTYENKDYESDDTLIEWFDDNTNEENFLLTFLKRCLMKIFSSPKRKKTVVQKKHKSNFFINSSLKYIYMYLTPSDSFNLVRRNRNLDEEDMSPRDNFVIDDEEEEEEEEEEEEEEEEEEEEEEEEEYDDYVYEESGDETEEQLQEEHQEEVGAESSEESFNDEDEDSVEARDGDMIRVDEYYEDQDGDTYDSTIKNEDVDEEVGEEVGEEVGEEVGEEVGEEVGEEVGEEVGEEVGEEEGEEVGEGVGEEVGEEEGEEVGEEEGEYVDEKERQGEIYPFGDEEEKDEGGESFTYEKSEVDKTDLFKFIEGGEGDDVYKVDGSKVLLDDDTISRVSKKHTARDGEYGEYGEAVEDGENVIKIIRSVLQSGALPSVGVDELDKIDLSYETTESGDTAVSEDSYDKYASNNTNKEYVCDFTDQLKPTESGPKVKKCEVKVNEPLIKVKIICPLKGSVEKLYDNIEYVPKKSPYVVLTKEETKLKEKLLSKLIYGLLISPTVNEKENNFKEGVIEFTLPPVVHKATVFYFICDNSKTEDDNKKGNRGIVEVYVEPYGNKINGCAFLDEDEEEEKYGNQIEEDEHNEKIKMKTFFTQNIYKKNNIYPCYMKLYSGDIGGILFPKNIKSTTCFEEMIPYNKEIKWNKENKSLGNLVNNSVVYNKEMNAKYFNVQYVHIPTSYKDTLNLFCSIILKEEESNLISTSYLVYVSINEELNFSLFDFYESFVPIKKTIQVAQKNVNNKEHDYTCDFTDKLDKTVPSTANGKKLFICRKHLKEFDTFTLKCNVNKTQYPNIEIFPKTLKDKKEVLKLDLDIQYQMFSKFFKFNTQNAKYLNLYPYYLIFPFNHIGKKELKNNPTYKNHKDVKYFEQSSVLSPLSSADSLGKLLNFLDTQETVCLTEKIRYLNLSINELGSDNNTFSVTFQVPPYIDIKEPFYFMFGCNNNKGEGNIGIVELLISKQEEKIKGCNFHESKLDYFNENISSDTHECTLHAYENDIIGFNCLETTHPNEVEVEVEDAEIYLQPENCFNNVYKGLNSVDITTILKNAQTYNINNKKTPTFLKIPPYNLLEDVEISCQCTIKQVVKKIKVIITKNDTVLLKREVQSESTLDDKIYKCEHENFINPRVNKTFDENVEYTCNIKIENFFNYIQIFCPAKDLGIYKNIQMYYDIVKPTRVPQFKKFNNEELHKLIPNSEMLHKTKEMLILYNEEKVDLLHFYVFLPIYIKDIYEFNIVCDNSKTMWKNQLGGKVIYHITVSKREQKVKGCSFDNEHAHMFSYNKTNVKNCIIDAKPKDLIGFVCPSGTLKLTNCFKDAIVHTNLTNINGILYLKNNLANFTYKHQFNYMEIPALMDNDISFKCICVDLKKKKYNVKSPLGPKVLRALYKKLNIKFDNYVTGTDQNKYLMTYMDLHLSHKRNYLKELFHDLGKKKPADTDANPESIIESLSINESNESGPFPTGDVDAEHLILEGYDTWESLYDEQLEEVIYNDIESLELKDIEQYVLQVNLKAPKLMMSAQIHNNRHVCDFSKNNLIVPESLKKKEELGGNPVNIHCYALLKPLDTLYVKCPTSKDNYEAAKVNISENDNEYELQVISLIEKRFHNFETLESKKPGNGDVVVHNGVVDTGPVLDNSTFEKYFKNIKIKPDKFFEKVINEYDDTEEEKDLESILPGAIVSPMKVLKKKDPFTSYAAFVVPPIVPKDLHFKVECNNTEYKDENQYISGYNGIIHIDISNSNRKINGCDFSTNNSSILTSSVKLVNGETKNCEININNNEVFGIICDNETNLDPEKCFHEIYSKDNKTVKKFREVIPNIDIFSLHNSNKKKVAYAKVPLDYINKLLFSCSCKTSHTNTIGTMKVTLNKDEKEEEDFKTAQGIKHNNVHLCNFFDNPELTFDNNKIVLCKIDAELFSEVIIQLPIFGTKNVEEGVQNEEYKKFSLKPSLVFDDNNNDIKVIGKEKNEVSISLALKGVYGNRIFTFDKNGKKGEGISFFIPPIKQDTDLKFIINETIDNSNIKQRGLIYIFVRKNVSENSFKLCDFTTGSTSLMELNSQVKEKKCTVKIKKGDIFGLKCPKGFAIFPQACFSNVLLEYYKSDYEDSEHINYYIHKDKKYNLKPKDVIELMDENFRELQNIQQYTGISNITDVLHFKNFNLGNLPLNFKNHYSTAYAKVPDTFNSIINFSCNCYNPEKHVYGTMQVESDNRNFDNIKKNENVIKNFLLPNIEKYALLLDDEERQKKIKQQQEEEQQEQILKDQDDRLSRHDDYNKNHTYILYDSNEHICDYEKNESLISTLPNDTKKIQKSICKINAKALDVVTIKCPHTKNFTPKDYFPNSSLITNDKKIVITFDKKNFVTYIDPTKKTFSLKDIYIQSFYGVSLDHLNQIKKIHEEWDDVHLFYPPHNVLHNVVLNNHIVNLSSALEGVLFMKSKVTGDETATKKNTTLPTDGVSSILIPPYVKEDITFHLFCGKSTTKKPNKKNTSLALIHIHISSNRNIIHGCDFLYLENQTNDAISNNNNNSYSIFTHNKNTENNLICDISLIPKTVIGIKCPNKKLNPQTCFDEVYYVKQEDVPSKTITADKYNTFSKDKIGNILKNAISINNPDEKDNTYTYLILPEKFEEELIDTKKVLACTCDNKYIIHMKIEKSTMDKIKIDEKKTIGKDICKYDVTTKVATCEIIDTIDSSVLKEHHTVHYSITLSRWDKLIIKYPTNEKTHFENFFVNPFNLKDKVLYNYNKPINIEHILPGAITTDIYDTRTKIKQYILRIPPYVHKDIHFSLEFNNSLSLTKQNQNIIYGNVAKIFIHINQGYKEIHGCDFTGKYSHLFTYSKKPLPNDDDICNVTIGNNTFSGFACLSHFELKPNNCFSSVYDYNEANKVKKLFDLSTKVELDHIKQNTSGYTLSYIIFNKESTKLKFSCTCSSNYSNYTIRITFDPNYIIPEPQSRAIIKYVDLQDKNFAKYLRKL
# Assay: […]; 5 μg/ml mAb in PBST; […]
# Details: one partner purified
row,Binder,binding result
1,B2,binds
2,B3,binds
3,B4,binds
4,B5,binds
5,B6,binds
6,B7,binds
7,B8,binds
8,B9,binds
9,B10,binds
10,B11,binds
11,B12,binds
12,B13,binds

# Target: T1, Pfs230 C1
# Assay: ELISA
# Details: both partners purified
row,Binder,binding result
1,B2,binds
2,B3,binds
3,B4,binds
4,B5,binds
5,B6,binds
6,B14,binds
7,B15,binds
8,B16,binds
9,B7,binds
10,B8,binds
11,B9,binds
12,B10,binds
13,B11,binds
14,B12,binds
15,B13,binds

# Target: Pfs230 Pro (Plasmodium falciparum 3D7 (clone of …, UniProt P68874))
# Sequence (P68874 443-590): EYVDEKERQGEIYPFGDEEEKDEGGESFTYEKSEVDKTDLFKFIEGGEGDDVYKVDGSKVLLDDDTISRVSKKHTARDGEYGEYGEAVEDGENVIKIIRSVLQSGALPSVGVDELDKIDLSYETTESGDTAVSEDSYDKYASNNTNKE
# Assay: ELISA
# Details: both partners purified
row,Binder,binding result
1,B14,binds
2,B15,binds
3,B16,binds
